Experimental data: patent US20090203610A1, “METHODS OF TREATING OBESITY OR DIABETES USING NT-4/5” (RINAT NEUROSCIENCE CORPORATION, priority 2004, published 2009)

Columns and labels:
[1] = system: NONcNZO-10 polygenic obese mice; experiment: Body weight in NONcNZO-10 mice (Example 4, Table 19); type: in vivo
Description: Test animals: 40 male NONcNZO-10 polygenic obese mice obtained from Jackson Laboratory at 10 weeks of age weighing in the range of 26-32 g were used in this study.
Administration of NT-4/5: NT-4/5 was produced in E. coli as descried in U.S. Pat. No. 6,184,360. The mice were divided into 6 groups of equivalent body weight and baseline blood glucose distribution (6-7 mice per group). […] A “paired-fed” control group received daily injection of vehicle, but were only fed with the same amount of food the 3 mg/kg group consumed the previous day. On the day when the treatment started (day 1), a baseline blood samples were collected for measuring glucose and triglyceride. Triglyceride level was measured on day 10. At the end of the study (day 12), a terminal blood sample was collected to determine glucose, triglyceride, electrolytes (Na, K, Cl), testoterone, corticosterone, thyroid hormone (total T4) and thyroid stimulating hormone (TSH) levels. Electrolytes, free testosterone, T4 and TSH levels of serum samples were measured by AniLytics (Gaithesburg, M.D) according to the standard protocols employed by the vendor. Other analytes were measured as described above. Body weight, food intake were monitored 5 days per week through out the entire study. Daily water intake was measured from day 5 through day 7.

db/db mice [2] = experiment: Dose response of NT-4/5 on body weight and percentage change in body weight of db/db mice (Example 2, Tables 16, 17); type: in vivo; set-up: body weight: unit not given here; conditions: for body weight / percentage change in body weight: db/db mice, 12 week, female, mean
Method: Db/db mice maintained as described in Example 1 were divided into five groups (groups 1-5). Group 1 (7 mice) were administered with vehicle (PBS). Group 2 (7 mice), group 3 (8 mice), group 4 (8 mice), group 5 (8 mice) were each administered with NT-4/5 at the doses of 2 mg/kg, 5 mg/kg, 10 mg/kg, and 20 mg/kg, respectively. Both the vehicle and NT-4/5 were administered to each group of the mice subcutaneously once daily for five days. One day before beginning the treatment (T0), blood samples were collected from the mice as described previously for the determination of baseline levels of serum biomarkers (glucose, triglyceride, and cholesterol). Similarly, at day 6 (T6), blood samples were collected for the determination of serum biomarker levels. The blood samples were treated in the same manner as described in Example 1.
From two days before the treatment (T-1) to day 6 (T6), individual food intakes of the mice were measured daily. Individual body weights were also measured daily from 6 days before the treatment (T-5) to day 7 (T7).

Sprague-Dawley rats = experiment: Heat/thermal hyperalgesia, latency for foot withdrawal (Example 13); type: in vivo
Method: To test whether NT-4/5 elicits pain in animals after NT-4/5 administration, a heat/thermal hyperalgesia animal model was used for testing. […] Then the latency for foot withdrawal in response to a constant radiant heat source was measured. See, Hargreaves et al., Neurology 48:501-505 (1997); Shu et al., Pain 80:463-470 (1999).

db/db mice [3] = experiment: Long term glucose control in db/db mice (Example 14); type: in vivo
Method: Db/db mice maintained as described in Example 1 were divided into five groups (groups 1-5). Group 1 were administered with vehicle (PBS). Group 2, group 3, group 4, group 5 were each administered with NT-4/5 at the doses of 2 mg/kg, 5 mg/kg, 10 mg/kg, and 20 mg/kg, respectively. Both the vehicle and NT-4/5 were administered to each group of the mice subcutaneously once daily from day 1 to day 26. One day before beginning the treatment (day 0), blood samples were collected from the mice as described previously for the determination of baseline levels of serum biomarkers (glucose and insulin). On day 45, HbA1c level was measured. Glucose tolerance test was performed on day 54 (28 days after the last dose of NT-4/5 treatment). Intraperitoneal (IP) glucose tolerance test was conducted by fasting the mice overnight (16 hours) before giving them an IP injection of a load of 2 grams of glucose/kg of body weight. Serum glucose and insulin were also measured.

human TrkC = target: T1, human TrkC (Homo sapiens, UniProt Q16288); experiment: Receptor tyrosine phosphorylation in trkC expressing cell line; type: cell-based
T1 construct: expressed in transfected cells
Description: (§1) Assays of TrkB specific activation by pegylated NT-4/5: Stable cell lines expressing human TrkA, TrkB or TrkC were used to determine the functional activity, i.e. receptor phosphorylation, of NT-4/5 and pegylated NT-4/5 as previously described (Sadick et al. Experimental Cell Research 234: 354-361, 1997).
as §1, with “and different forms of” for “and”

T1 sequence (Q16288 32-839): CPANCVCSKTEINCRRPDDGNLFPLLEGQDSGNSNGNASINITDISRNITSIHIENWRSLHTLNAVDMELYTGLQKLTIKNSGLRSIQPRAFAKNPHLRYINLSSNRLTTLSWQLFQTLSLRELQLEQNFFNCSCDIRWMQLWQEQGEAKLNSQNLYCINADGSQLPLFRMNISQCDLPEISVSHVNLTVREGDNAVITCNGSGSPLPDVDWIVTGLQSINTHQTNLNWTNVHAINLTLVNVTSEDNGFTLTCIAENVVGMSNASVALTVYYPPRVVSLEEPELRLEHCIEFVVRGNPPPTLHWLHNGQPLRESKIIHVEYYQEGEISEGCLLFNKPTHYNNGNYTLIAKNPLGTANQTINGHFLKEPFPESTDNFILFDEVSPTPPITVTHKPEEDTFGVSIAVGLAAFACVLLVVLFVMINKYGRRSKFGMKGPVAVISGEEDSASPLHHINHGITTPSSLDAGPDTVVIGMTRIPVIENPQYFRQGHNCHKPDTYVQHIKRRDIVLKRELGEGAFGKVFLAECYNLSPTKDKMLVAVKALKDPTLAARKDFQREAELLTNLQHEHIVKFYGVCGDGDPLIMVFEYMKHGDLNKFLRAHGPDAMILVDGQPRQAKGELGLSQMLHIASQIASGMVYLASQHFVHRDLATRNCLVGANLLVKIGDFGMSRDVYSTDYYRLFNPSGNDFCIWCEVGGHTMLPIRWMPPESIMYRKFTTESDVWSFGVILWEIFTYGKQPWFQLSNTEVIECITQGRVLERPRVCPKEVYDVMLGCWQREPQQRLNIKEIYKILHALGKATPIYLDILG

B1: NT-4/5: mature human neurotrophin-4/5 (SEQ ID NO:1), obtained from Genentech or produced in E. coli (protein, listed as Homo sapiens)
chain: GVSETAPASRRGELAVCDAVSGWVTDRRTAVDLRGREVEVLGEVPAAGGSPLRQYFFETRCKADNAEEGGPGAGGGGCRGVDRRHWVSECKAKQSYVRALTADAQGRVGWRWIRIDTACVCTLLSRTGRA
body weight loss relative to the vehicle control ([1]; 1 mg/kg): about 5% | body weight loss relative to the vehicle control ([1]; 3 mg/kg): about 10% | body weight ([1]; dose dependent manner): reduced body weight | body weight as compared to vehicle (db/db mice [2]; 2, 5, 10 and 20 mg/kg): significantly decreased body weight | body weight (db/db mice [2]; NT-4/5 2 mg/kg, Day 1): 39.66 | percentage change in body weight (db/db mice [2]; NT-4/5 2 mg/kg, Day 1): 101.83% | body weight (db/db mice [2]; NT-4/5 2 mg/kg, Day 3): 38.96 | percentage change in body weight (db/db mice [2]; NT-4/5 2 mg/kg, Day 3): 98.27% | body weight (db/db mice [2]; NT-4/5 2 mg/kg, Day 5): 38.17 | percentage change in body weight (db/db mice [2]; NT-4/5 2 mg/kg, Day 5): 96.24% | body weight (db/db mice [2]; NT-4/5 2 mg/kg, Day 7): 37.50 | percentage change in body weight (db/db mice [2]; NT-4/5 2 mg/kg, Day 7): 94.57% | body weight (db/db mice [2]; NT-4/5 2 mg/kg, Day −1): 38.94 | body weight (db/db mice [2]; NT-4/5 5 mg/kg, Day 1): 41.03 | percentage change in body weight (db/db mice [2]; NT-4/5 5 mg/kg, Day 1): 101.51% | body weight (db/db mice [2]; NT-4/5 5 mg/kg, Day 3): 39.26 | percentage change in body weight (db/db mice [2]; NT-4/5 5 mg/kg, Day 3): 95.71% | body weight (db/db mice [2]; NT-4/5 5 mg/kg, Day 5): 38.48 | percentage change in body weight (db/db mice [2]; NT-4/5 5 mg/kg, Day 5): 93.79% | body weight (db/db mice [2]; NT-4/5 5 mg/kg, Day 7): 37.00 | percentage change in body weight (db/db mice [2]; NT-4/5 5 mg/kg, Day 7): 90.15% | body weight (db/db mice [2]; NT-4/5 5 mg/kg, Day −1): 40.41 | body weight (db/db mice [2]; NT-4/5 10 mg/kg, Day 1): 39.99 | percentage change in body weight (db/db mice [2]; NT-4/5 10 mg/kg, Day 1): 101.07% | body weight (db/db mice [2]; NT-4/5 10 mg/kg, Day 3): 38.49 | percentage change in body weight (db/db mice [2]; NT-4/5 10 mg/kg, Day 3): 96.28% | body weight (db/db mice [2]; NT-4/5 10 mg/kg, Day 5): 37.35 | percentage change in body weight (db/db mice [2]; NT-4/5 10 mg/kg, Day 5): 93.43% | body weight (db/db mice [2]; NT-4/5 10 mg/kg, Day 7): 36.04 | percentage change in body weight (db/db mice [2]; NT-4/5 10 mg/kg, Day 7): 90.14% | body weight (db/db mice [2]; NT-4/5 10 mg/kg, Day −1): 39.58 | body weight (db/db mice [2]; NT-4/5 20 mg/kg, Day 1): 40.73 | percentage change in body weight (db/db mice [2]; NT-4/5 20 mg/kg, Day 1): 100.31% | body weight (db/db mice [2]; NT-4/5 20 mg/kg, Day 3): 39.10 | percentage change in body weight (db/db mice [2]; NT-4/5 20 mg/kg, Day 3): 96.01% | body weight (db/db mice [2]; NT-4/5 20 mg/kg, Day 5): 37.71 | percentage change in body weight (db/db mice [2]; NT-4/5 20 mg/kg, Day 5): 92.60% | body weight (db/db mice [2]; NT-4/5 20 mg/kg, Day 7): 36.00 | percentage change in body weight (db/db mice [2]; NT-4/5 20 mg/kg, Day 7): 88.38% | body weight (db/db mice [2]; NT-4/5 20 mg/kg, Day −1): 40.60 | pain (Sprague-Dawley rats; 2 mg/kg): did not cause pain | changes of latency for foot withdrawal in response to radiant heat (Sprague-Dawley rats; 2 mg/kg s.c., 3, 5 and 24 hour after administration): No statistically significant changes | serum insulin levels (db/db mice [3]; 10 mg/kg/d, day 6, P<0.05): significant reduction | serum insulin levels (db/db mice [3]; 20 mg/kg/d, day 6 and day 14, P<0.05): significant reduction | non-fasting serum glucose level reduction (db/db mice [3]; all treatment groups, remained low until day 29): more than 50% | HbA1c levels versus vehicle (db/db mice [3]; day 45 (15 days post-dose), 2, 5, 10 and 20 mg/kg s.c. daily day 1 to 26): significantly lower than the vehicle group | glucose tolerance (db/db mice [3]; day 54, 28 days after the last dose): significantly improved glucose tolerance | receptor tyrosine phosphorylation of trkC-expressing cell line (human TrkC): did not increase receptor tyrosine phosphorylation
